Square brackets hold non-standard residues; d marks the D form. Primed or numbered codes have the meaning given here. * marks the point of attachment. m‑dPEG(4)″ = m-dPEG(4) acid, coupled to Acp (R^111 group of Formula (4)), COCCOCCOCCOCCC(=O)*; m‑dPEG(4) = m-dPEG(4) acid, coupled to Acp, with Acp forms R^111 of Formula (4); Propanoyl(3,3-Ph2) = O=C(CC(c1ccccc1)c1ccccc1)*; 2Nal = N[C@@H](Cc1ccc2ccccc2c1)C(=O)O; Chg = N[C@H](C(=O)O)C1CCCCC1; R^118 = not defined here; Ahx = NCCCCCC(=O)O
T1: myostatin (UniProt O14793 267-375, limits assumed)
T1 sequence (looked up): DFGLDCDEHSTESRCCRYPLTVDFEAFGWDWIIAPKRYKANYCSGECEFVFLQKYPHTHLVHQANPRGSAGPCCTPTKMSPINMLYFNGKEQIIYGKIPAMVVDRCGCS

B1: nPDM-66 (peptide)
peptide: H-WYIRWIK[Chg]QIWSK[Chg]RL-NH2
SMILES: CC[C@H](C)[C@H](NC(=O)[C@H](CCC(N)=O)NC(=O)[C@@H](NC(=O)[C@H](CCCCN)NC(=O)[C@@H](NC(=O)[C@H](Cc1c[nH]c2ccccc12)NC(=O)[C@H](CCCNC(=N)N)NC(=O)[C@@H](NC(=O)[C@H](Cc1ccc(O)cc1)NC(=O)[C@@H](N)Cc1c[nH]c2ccccc12)[C@@H](C)CC)[C@@H](C)CC)C1CCCCC1)C(=O)N[C@@H](Cc1c[nH]c2ccccc12)C(=O)N[C@@H](CO)C(=O)N[C@@H](CCCCN)C(=O)N[C@H](C(=O)N[C@@H](CCCNC(=N)N)C(=O)N[C@@H](CC(C)C)C(N)=O)C1CCCCC1
B2: nPDM-76 (peptide)
peptide: H-WYIRWIR[Chg]PIWSR[Chg]RL-NH2
SMILES: CC[C@H](C)[C@H](NC(=O)[C@H](Cc1ccc(O)cc1)NC(=O)[C@@H](N)Cc1c[nH]c2ccccc12)C(=O)N[C@@H](CCCNC(=N)N)C(=O)N[C@@H](Cc1c[nH]c2ccccc12)C(=O)N[C@H](C(=O)N[C@@H](CCCNC(=N)N)C(=O)N[C@H](C(=O)N1CCC[C@H]1C(=O)N[C@H](C(=O)N[C@@H](Cc1c[nH]c2ccccc12)C(=O)N[C@@H](CO)C(=O)N[C@@H](CCCNC(=N)N)C(=O)N[C@H](C(=O)N[C@@H](CCCNC(=N)N)C(=O)N[C@@H](CC(C)C)C(N)=O)C1CCCCC1)[C@@H](C)CC)C1CCCCC1)[C@@H](C)CC
B3: nPDM-65 (peptide)
peptide: H-WYIRWIKIQIWSK[Chg]RL-NH2
SMILES: CC[C@H](C)[C@H](NC(=O)[C@H](CCC(N)=O)NC(=O)[C@@H](NC(=O)[C@H](CCCCN)NC(=O)[C@@H](NC(=O)[C@H](Cc1c[nH]c2ccccc12)NC(=O)[C@H](CCCNC(=N)N)NC(=O)[C@@H](NC(=O)[C@H](Cc1ccc(O)cc1)NC(=O)[C@@H](N)Cc1c[nH]c2ccccc12)[C@@H](C)CC)[C@@H](C)CC)[C@@H](C)CC)C(=O)N[C@@H](Cc1c[nH]c2ccccc12)C(=O)N[C@@H](CO)C(=O)N[C@@H](CCCCN)C(=O)N[C@H](C(=O)N[C@@H](CCCNC(=N)N)C(=O)N[C@@H](CC(C)C)C(N)=O)C1CCCCC1
B4: PDM-31 (peptide)
peptide: {m‑dPEG(4)″-Ahx}-[2Nal]YIEWIKIQIISKLRL-NH2
SMILES: CC[C@H](C)[C@H](NC(=O)[C@H](Cc1ccc(O)cc1)NC(=O)[C@H](Cc1ccc2ccccc2c1)NC(=O)CCCCCNC(=O)CCOCCOCCOCCOC)C(=O)N[C@@H](CCC(=O)O)C(=O)N[C@@H](Cc1c[nH]c2ccccc12)C(=O)N[C@H](C(=O)N[C@@H](CCCCN)C(=O)N[C@H](C(=O)N[C@@H](CCC(N)=O)C(=O)N[C@H](C(=O)N[C@H](C(=O)N[C@@H](CO)C(=O)N[C@@H](CCCCN)C(=O)N[C@@H](CC(C)C)C(=O)N[C@@H](CCCNC(=N)N)C(=O)N[C@@H](CC(C)C)C(N)=O)[C@@H](C)CC)[C@@H](C)CC)[C@@H](C)CC)[C@@H](C)CC
B5: nPDM-69 (peptide)
peptide: H-YYIR[2Nal]IKIQIWSKLRL-NH2
SMILES: CC[C@H](C)[C@H](NC(=O)[C@H](CCC(N)=O)NC(=O)[C@@H](NC(=O)[C@H](CCCCN)NC(=O)[C@@H](NC(=O)[C@H](Cc1ccc2ccccc2c1)NC(=O)[C@H](CCCNC(=N)N)NC(=O)[C@@H](NC(=O)[C@H](Cc1ccc(O)cc1)NC(=O)[C@@H](N)Cc1ccc(O)cc1)[C@@H](C)CC)[C@@H](C)CC)[C@@H](C)CC)C(=O)N[C@@H](Cc1c[nH]c2ccccc12)C(=O)N[C@@H](CO)C(=O)N[C@@H](CCCCN)C(=O)N[C@@H](CC(C)C)C(=O)N[C@@H](CCCNC(=N)N)C(=O)N[C@@H](CC(C)C)C(N)=O
B6: nPDM-75 (peptide)
peptide: H-WYIRWIR[Chg]QIWPR[Chg]RL-NH2
SMILES: CC[C@H](C)[C@H](NC(=O)[C@H](Cc1ccc(O)cc1)NC(=O)[C@@H](N)Cc1c[nH]c2ccccc12)C(=O)N[C@@H](CCCNC(=N)N)C(=O)N[C@@H](Cc1c[nH]c2ccccc12)C(=O)N[C@H](C(=O)N[C@@H](CCCNC(=N)N)C(=O)N[C@H](C(=O)N[C@@H](CCC(N)=O)C(=O)N[C@H](C(=O)N[C@@H](Cc1c[nH]c2ccccc12)C(=O)N1CCC[C@H]1C(=O)N[C@@H](CCCNC(=N)N)C(=O)N[C@H](C(=O)N[C@@H](CCCNC(=N)N)C(=O)N[C@@H](CC(C)C)C(N)=O)C1CCCCC1)[C@@H](C)CC)C1CCCCC1)[C@@H](C)CC
B7: 3d (peptide)
peptide: {R^118}-RQNTRYSRIEWIKIQIISKLRL-NH2
modifications: reading uncertain; also: N-terminal R118 group (Formula 11) structure not given here, printed as R118-RQNTRYSRIEWIKIQIISKLRL-NH2
B8: 3,3-diphenylpropionyl-nPDM-85 (peptide)
peptide: {Propanoyl(3,3-Ph2)}-YIRWIR[Chg]QIWSR[Chg]PL-NH2
SMILES: CC[C@H](C)[C@H](NC(=O)[C@H](Cc1ccc(O)cc1)NC(=O)CC(c1ccccc1)c1ccccc1)C(=O)N[C@@H](CCCNC(=N)N)C(=O)N[C@@H](Cc1c[nH]c2ccccc12)C(=O)N[C@H](C(=O)N[C@@H](CCCNC(=N)N)C(=O)N[C@H](C(=O)N[C@@H](CCC(N)=O)C(=O)N[C@H](C(=O)N[C@@H](Cc1c[nH]c2ccccc12)C(=O)N[C@@H](CO)C(=O)N[C@@H](CCCNC(=N)N)C(=O)N[C@H](C(=O)N1CCC[C@H]1C(=O)N[C@@H](CC(C)C)C(N)=O)C1CCCCC1)[C@@H](C)CC)C1CCCCC1)[C@@H](C)CC
B9: nPDM-71 (peptide)
peptide: H-WYIRWIR[Chg]QIWSK[Chg]RL-NH2
SMILES: CC[C@H](C)[C@H](NC(=O)[C@H](CCC(N)=O)NC(=O)[C@@H](NC(=O)[C@H](CCCNC(=N)N)NC(=O)[C@@H](NC(=O)[C@H](Cc1c[nH]c2ccccc12)NC(=O)[C@H](CCCNC(=N)N)NC(=O)[C@@H](NC(=O)[C@H](Cc1ccc(O)cc1)NC(=O)[C@@H](N)Cc1c[nH]c2ccccc12)[C@@H](C)CC)[C@@H](C)CC)C1CCCCC1)C(=O)N[C@@H](Cc1c[nH]c2ccccc12)C(=O)N[C@@H](CO)C(=O)N[C@@H](CCCCN)C(=O)N[C@H](C(=O)N[C@@H](CCCNC(=N)N)C(=O)N[C@@H](CC(C)C)C(N)=O)C1CCCCC1
B10: nPDM-70 (peptide)
peptide: H-WYIRWIK[Chg]QIWSR[Chg]RL-NH2
SMILES: CC[C@H](C)[C@H](NC(=O)[C@H](CCC(N)=O)NC(=O)[C@@H](NC(=O)[C@H](CCCCN)NC(=O)[C@@H](NC(=O)[C@H](Cc1c[nH]c2ccccc12)NC(=O)[C@H](CCCNC(=N)N)NC(=O)[C@@H](NC(=O)[C@H](Cc1ccc(O)cc1)NC(=O)[C@@H](N)Cc1c[nH]c2ccccc12)[C@@H](C)CC)[C@@H](C)CC)C1CCCCC1)C(=O)N[C@@H](Cc1c[nH]c2ccccc12)C(=O)N[C@@H](CO)C(=O)N[C@@H](CCCNC(=N)N)C(=O)N[C@H](C(=O)N[C@@H](CCCNC(=N)N)C(=O)N[C@@H](CC(C)C)C(N)=O)C1CCCCC1
B11: nPDM-77 (peptide)
peptide: H-WYIRWIP[Chg]QIWSR[Chg]RL-NH2
SMILES: CC[C@H](C)[C@H](NC(=O)[C@H](CCC(N)=O)NC(=O)[C@@H](NC(=O)[C@@H]1CCCN1C(=O)[C@@H](NC(=O)[C@H](Cc1c[nH]c2ccccc12)NC(=O)[C@H](CCCNC(=N)N)NC(=O)[C@@H](NC(=O)[C@H](Cc1ccc(O)cc1)NC(=O)[C@@H](N)Cc1c[nH]c2ccccc12)[C@@H](C)CC)[C@@H](C)CC)C1CCCCC1)C(=O)N[C@@H](Cc1c[nH]c2ccccc12)C(=O)N[C@@H](CO)C(=O)N[C@@H](CCCNC(=N)N)C(=O)N[C@H](C(=O)N[C@@H](CCCNC(=N)N)C(=O)N[C@@H](CC(C)C)C(N)=O)C1CCCCC1
B12: nPDM-72 (peptide)
peptide: H-WYIRWIR[Chg]QIWSR[Chg]RL-NH2
SMILES: CC[C@H](C)[C@H](NC(=O)[C@H](CCC(N)=O)NC(=O)[C@@H](NC(=O)[C@H](CCCNC(=N)N)NC(=O)[C@@H](NC(=O)[C@H](Cc1c[nH]c2ccccc12)NC(=O)[C@H](CCCNC(=N)N)NC(=O)[C@@H](NC(=O)[C@H](Cc1ccc(O)cc1)NC(=O)[C@@H](N)Cc1c[nH]c2ccccc12)[C@@H](C)CC)[C@@H](C)CC)C1CCCCC1)C(=O)N[C@@H](Cc1c[nH]c2ccccc12)C(=O)N[C@@H](CO)C(=O)N[C@@H](CCCNC(=N)N)C(=O)N[C@H](C(=O)N[C@@H](CCCNC(=N)N)C(=O)N[C@@H](CC(C)C)C(N)=O)C1CCCCC1

molecular target: T1, myostatin; assay: cell-based or functional assay

Binder | myostatin inhibitory activity at 0.3 µM (luciferase reporter assay) | myostatin inhibitory activity at 1 µM (luciferase reporter assay) | IC50 of the myostatin inhibitory activity (luciferase reporter assay, 0.016 to 2 µM)
B1 | ≥ 40 % inhibition | ≥ 40 % inhibition | –
H-WYFRWIKIQIWSKLRL-NH2 [nPDM-67] | – | ≥ 40 % inhibition | –
H-WYIRWIR[Chg]QIWSR[Chg]PL-NH2 [nPDM-73] | ≥ 40 % inhibition | – | –
B2 | ≥ 40 % inhibition | – | –
B3 | ≥ 40 % inhibition | ≥ 40 % inhibition | –
B4 | – | ≥ 40 % inhibition | –
B5 | ≥ 40 % inhibition | ≥ 40 % inhibition | –
B6 | ≥ 40 % inhibition | – | –
{m‑dPEG(4)-Ahx}-FYIEWIKIQIISKLRL-NH2 [PDM-32] | – | ≥ 40 % inhibition | –
{m‑dPEG(4)-Ahx}-WWIEWIKIQIISKLRL-NH2 [PDM-30] | – | ≥ 40 % inhibition | –
{m‑dPEG(4)-Ahx}-YYIEWIKIQIISKLRL-NH2 [PDM-29] | – | ≥ 40 % inhibition | –
B7 | – | – | 273 nM
B8 | ≥ 40 % inhibition | – | –
B9 | ≥ 40 % inhibition | – | –
B10 | ≥ 40 % inhibition | – | –
H-AWYIRWIKIQIWSKLRL-NH2 [A-nPDM-55/E31R] | ≥ 40 % inhibition | – | –
B11 | ≥ 40 % inhibition | – | –
B12 | ≥ 40 % inhibition | – | –

— US20190177370A1 (TOKYO UNIVERSITY OF PHARMACY AND LIFE SCIENCES, published 2019)
